Test results: article PMC10049462, “Molecular Structure of Phosphoserine Aminotransferase from Saccharomyces cerevisiae” (International Journal of Molecular Sciences, 2023)

Biological target: the molecule itself
Experiment: crystal structure; sitting-drop vapor diffusion at 20 °C; optimized crystals from 2.4 M ammonium sulfate, 0.1 M citric acid pH 3.5; space group P3(1)21; 2.8 Å; apo form; dimer in the asymmetric unit

B1: Saccharomyces cerevisiae phosphoserine aminotransferase (enzyme, S. cerevisiae, UniProt P33330 1-395, looked up)
chain: MSLEREEPQHFGAGPAQMPTPVLQQAAKDLINFNDIGLGIGEISHRSKDATKVIEDSKKHLIELLNIPDTHEVFYLQGGGTTGFSSVATNLAAAYVGKHGKIAPAGYLVTGSWSQKSFEEAKRLHVPAEVIFNAKDYNNGKFGKIPDESLWEDKIKGKAFSYVYLCENETVHGVEWPELPKCLVNDPNIEIVADLSSDILSRKIDVSQYGVIMAGAQKNIGLAGLTLYIIKKSILKNISGASDETLHELGVPITPIAFDYPTVVKNNSAYNTIPIFTLHVMDLVFQHILKKGGVEAQQAENEEKAKILYEALDANSDFYNVPVDPKCRSKMNVVFTLKKDGLDDQFLKEAAARHLTGLKGHRSVGGFRASIYNALSVKAVQNLVDFIKEFAEKNA
notes: Phosphoserine aminotransferase (PSAT) of S. cerevisiae, encoded by SER1; full-length gene amplified from genomic DNA and cloned into pET28a; residues 1-395 (large domain 54-293, small domain 294-395); apo form without PLP; residues 1-53, 218-220 and 268-271 not modelled in the crystal structure; they may come from different strains; also called ScPSAT; PSAT; source: E. coli BL21 (DE3) Star, …
B1 was tested, and the “stoichiometry N” value was 2.
